The supplement of paper PMC5998384

Assays:
HeLa Kyoto [1] = experiment: solubility in G1/S (NP-40 vs SDS abundance) (log2 ratio); higher = more soluble; settings: cell cycle stage: G1/S
HeLa Kyoto [2] = experiment: melting temperature (median over replicates), in situ; higher = more thermally stable
HeLa Kyoto [3] = experiment: solubility change mitosis vs G1/S (difference of NP-40 vs SDS log2 ratios) (log2 ratio difference); higher = more soluble in mitosis
HeLa Kyoto [4] = experiment: thermal stability score vs G1/S (z-score of summed log2 fold changes over temperatures); higher = more thermally stable than in G1/S
[5] = cell cycle stage: early G1 (4.5 h after nocodazole release)
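For melting temperature (median over replicates), in situ in this document: HeLa Kyoto cells synchronized by double thymidine or nocodazole block, proteins quantified by TMT10plex mass spectrometry, three independent biological replicates.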
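For solubility change mitosis vs G1/S (difference of NP-40 vs SDS log2 ratios) in this document: synchronized HeLa Kyoto cells (double thymidine block for G1/S, nocodazole release for mitosis), protein amounts in NP-40 versus SDS lysates quantified by mass spectrometry, three biological replicates.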
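For solubility in G1/S (NP-40 vs SDS abundance) in this document: HeLa Kyoto cells arrested at G1/S by double thymidine block, proteins quantified by TMT10plex mass spectrometry in mild NP-40 versus SDS extracts, three biological replicates.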
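For thermal stability score vs G1/S (z-score of summed log2 fold changes over temperatures) in this document: synchronized HeLa Kyoto cells, proteins quantified by TMT10plex mass spectrometry, three biological replicates, mitosis taken 0.5 h after nocodazole release, G1/S directly after double thymidine block.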

CDC42, sequence (chain, as listed by the source): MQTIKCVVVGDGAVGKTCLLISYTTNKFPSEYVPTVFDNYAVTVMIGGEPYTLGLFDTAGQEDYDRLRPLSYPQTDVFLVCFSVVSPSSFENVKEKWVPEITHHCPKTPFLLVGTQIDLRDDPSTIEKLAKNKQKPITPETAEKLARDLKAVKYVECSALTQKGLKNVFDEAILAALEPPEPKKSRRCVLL

## MDLNSASTVVLQVLTQATSQDTAVLKPAEEQLKQWETQPGFYSVLLNIFTNHTLDINVRWLAVLYFKHGIDRYWRRVAPHALSEEEKTTLRAGLITNFNEPINQIATQIAVLIAKVARLDCPRQWPELIPTLIESVKVQDDLRQHRALLTFYHVTKTLASKRLAADRKLFYDLASGIYNFACSLWNHHTDTFLQEVSSGNEAAILSSLERTLLSLKVLRKLTVNGFVEPHKNMEVMGFLHGIFERLKQFLECSRSIGTDNVCRDRLEKTIILFTKVLLDFLDQHPFSFTPLIQRSLEFSVSYVFTEVGEGVTFERFIVQCMNLIKMIVKNYAYKPSKNFEDSSPETLEAHKIKMAFFTYPTLTEICRRLVSHYFLLTEEELTMWEEDPEGFTVEETGGDSWKYSLRPCTEVLFIDIFHEYNQTLTPVLLEMMQTLQGPTNVEDMNALLIKDAVYNAVGLAAYELFDSVDFDQWFKNQLLPELQVIHNRYKPLRRRVIWLIGQWISVKFKSDLRPMLYEAICNLLQDQDLVVRIETATTLKLTVDDFEFRTDQFLPYLETMFTLLFQLLQQVTECDTKMHVLHVLSCVIERVNMQIRPYVGCLVQYLPLLWKQSEEHNMLRCAILTTLIHLVQGLGADSKNLYPFLLPVIQLSTDVSQPPHVYLLEDGLELWLVTLENSPCITPELLRIFQNMSPLLELSSENLRTCFKIINGYIFLSSTEFLQTYAVGLCQSFCELLKEITTEGQVQVLKVVENALKVNPILGPQMFQPILPYVFKGIIEGERYPVVMSTYLGVMGRVLLQNTSFFSSLLNEMAHKFNQEMDQLLGNMIEMWVDRMDNITQPERRKLSALALLSLLPSDNSVIQDKFCGIINISVEGLHDVMTEDPETGTYKDCMLMSHLEEPKVTEDEEPPTEQDKRKKMLALKDPVHTVSLQQFIYEKLKAQQEMLGEQGFQSLMETVDTEIVTQLQEFLQGF [IPO11]
HeLa Kyoto [1]
  solubility in G1/S (log2): -0.209
HeLa Kyoto [2]; cell cycle stage: G1/S
  melting temperature: 51.5 °C
HeLa Kyoto [2]; cell cycle stage: mitosis
  melting temperature: 50.8 °C
HeLa Kyoto [3]
  solubility change mitosis (log2): -0.25
HeLa Kyoto [4]; [5]
  thermal stability score: 1.33
HeLa Kyoto [4]; cell cycle stage: mitosis
  thermal stability score: 0.273

## MSGWADERGGEGDGRIYVGNLPTDVREKDLEDLFYKYGRIREIELKNRHGLVPFAFVRFEDPRDAEDAIYGRNGYDYGQCRLRVEFPRTYGGRGGWPRGGRNGPPTRRSDFRVLVSGLPPSGSWQDLKDHMREAGDVCYADVQKDGVGMVEYLRKEDMEYALRKLDDTKFRSHEGETSYIRVYPERSTSYGYSRSRSGSRGRDSPYQSRGSPHYFSPFRPY [SRSF9]
HeLa Kyoto [1]
  solubility in G1/S (log2): -0.159
HeLa Kyoto [2]; cell cycle stage: G1/S
  melting temperature: 50 °C
HeLa Kyoto [2]; cell cycle stage: mitosis
  melting temperature: 50.6 °C
HeLa Kyoto [3]
  solubility change mitosis (log2): 0.706
HeLa Kyoto [4]; [5]
  thermal stability score: -3.88
HeLa Kyoto [4]; cell cycle stage: mitosis
  thermal stability score: -3.72

## CDC42
HeLa Kyoto [1]
  solubility in G1/S (log2): 0.629
HeLa Kyoto [2]; cell cycle stage: G1/S
  melting temperature: 60.1 °C
HeLa Kyoto [2]; cell cycle stage: mitosis
  melting temperature: 59.8 °C
HeLa Kyoto [3]
  solubility change mitosis (log2): -0.0727
HeLa Kyoto [4]; [5]
  thermal stability score: -1.73
HeLa Kyoto [4]; cell cycle stage: mitosis
  thermal stability score: 1.82

## MTANRDAALSSHRHPGCAQRPRTPTFASSSQRRSAFGFDDGNFPGLGERSHAPGSRLGARRRAKTARGLRGHRQRGAGAGLSRPGSARAPSPPRPGGPENPGGVLSVELPGLLAQLARSFALLLPVYALGYLGLSFSWVLLALALLAWCRRSRGLKALRLCRALALLEDEERVVRLGVRACDLPAWVHFPDTERAEWLNKTVKHMWPFICQFIEKLFRETIEPAVRGANTHLSTFSFTKVDVGQQPLRINGVKVYTENVDKRQIILDLQISFVGNCEIDLEIKRYFCRAGVKSIQIHGTMRVILEPLIGDMPLVGALSIFFLRKPLLEINWTGLTNLLDVPGLNGLSDTIILDIISNYLVLPNRITVPLVSEVQIAQLRFPVPKGVLRIHFIEAQDLQGKDTYLKGLVKGKSDPYGIIRVGNQIFQSRVIKENLSPKWNEVYEALVYEHPGQELEIELFDEDPDKDDFLGSLMIDLIEVEKERLLDEWFTLDEVPKGKLHLRLEWLTLMPNASNLDKVLTDIKADKDQANDGLSSALLILYLDSARNLPSGKKISSNPNPVVQMSVGHKAQESKIRYKTNEPVWEENFTFFIHNPKRQDLEVEVRDEQHQCSLGNLKVPLSQLLTSEDMTVSQRFQLSNSGPNSTIKMKIALRVLHLEKRERPPDHQHSAQVKRPSVSKEGRKTSIKSHMSGSPGPGGSNTAPSTPVIGGSDKPGMEEKAQPPEAGPQGLHDLGRSSSSLLASPGHISVKEPTPSIASDISLPIATQELRQRLRQLENGTTLGQSPLGQIQLTIRHSSQRNKLIVVVHACRNLIAFSEDGSDPYVRMYLLPDKRRSGRRKTHVSKKTLNPVFDQSFDFSVSLPEVQRRTLDVAVKNSGGFLSKDKGLLGKVLVALASEELAKGWTQWYDLTEDGTRPQAMT [ESYT2]
HeLa Kyoto [1]
  solubility in G1/S (log2): -0.095
HeLa Kyoto [2]; cell cycle stage: G1/S
  melting temperature: 51.2 °C
HeLa Kyoto [2]; cell cycle stage: mitosis
  melting temperature: 51.5 °C
HeLa Kyoto [3]
  solubility change mitosis (log2): -0.0587
HeLa Kyoto [4]; [5]
  thermal stability score: 0.682
HeLa Kyoto [4]; cell cycle stage: mitosis
  thermal stability score: 0.876

## MFDTTPHSGRSTPSSSPSLRKRLQLLPPSRPPPEPEPGTMVEKGSDSSSEKGGVPGTPSTQSLGSRNFIRNSKKMQSWYSMLSPTYKQRNEDFRKLFSKLPEAERLIVDYSCALQREILLQGRLYLSENWICFYSNIFRWETTISIQLKEVTCLKKEKTAKLIPNAIQICTESEKHFFTSFGARDRCFLLIFRLWQNALLEKTLSPRELWHLVHQCYGSELGLTSEDEDYVSPLQLNGLGTPKEVGDVIALSDITSSGAADRSQEPSPVGSRRGHVTPNLSRASSDADHGAEEDKEEQVDSQPDASSSQTVTPVAEPPSTEPTQPDGPTTLGPLDLLPSEELLTDTSNSSSSTGEEADLAALLPDLSGRLLINSVFHVGAERLQQMLFSDSPFLQGFLQQCKFTDVTLSPWSGDSKCHQRRVLTYTIPISNPLGPKSASVVETQTLFRRGPQAGGCVVDSEVLTQGIPYQDYFYTAHRYCILGLARNKARLRVSSEIRYRKQPWSLVKSLIEKNSWSGIEDYFHHLERELAKAEKLSLEEGGKDARGLLSGLRRRKRPLSWRAHGDGPQHPDPDPCARAGIHTSGSLSSRFSEPSVDQGPGAGIPSALVLISIVICVSLIILIALNVLLFYRLWSLERTAHTFESWHSLALAKGKFPQTATEWAEILALQKQFHSVEVHKWRQILRASVELLDEMKFSLEKLHQGITVSDPPFDTQPRPDDSFS [GRAMD1A]
HeLa Kyoto [1]
  solubility in G1/S (log2): -0.0369
HeLa Kyoto [2]; cell cycle stage: G1/S
  melting temperature: 50.4 °C
HeLa Kyoto [2]; cell cycle stage: mitosis
  melting temperature: 51.8 °C
HeLa Kyoto [3]
  solubility change mitosis (log2): -0.0358
HeLa Kyoto [4]; [5]
  thermal stability score: 0.21
HeLa Kyoto [4]; cell cycle stage: mitosis
  thermal stability score: 0.368

## MCGSALAFFTAAFVCLQNDRRGPASFLWAAWVFSLVLGLGQGEDNRCASSNAASCARCLALGPECGWCVQEDFISGGSRSERCDIVSNLISKGCSVDSIEYPSVHVIIPTENEINTQVTPGEVSIQLRPGAEANFMLKVHPLKKYPVDLYYLVDVSASMHNNIEKLNSVGNDLSRKMAFFSRDFRLGFGSYVDKTVSPYISIHPERIHNQCSDYNLDCMPPHGYIHVLSLTENITEFEKAVHRQKISGNIDTPEGGFDAMLQAAVCESHIGWRKEAKRLLLVMTDQTSHLALDSKLAGIVVPNDGNCHLKNNVYVKSTTMEHPSLGQLSEKLIDNNINVIFAVQGKQFHWYKDLLPLLPGTIAGEIESKAANLNNLVVEAYQKLISEVKVQVENQVQGIYFNITAICPDGSRKPGMEGCRNVTSNDEVLFNVTVTMKKCDVTGGKNYAIIKPIGFNETAKIHIHRNCSCQCEDNRGPKGKCVDETFLDSKCFQCDENKCHFDEDQFSSESCKSHKDQPVCSGRGVCVCGKCSCHKIKLGKVYGKYCEKDDFSCPYHHGNLCAGHGECEAGRCQCFSGWEGDRCQCPSAAAQHCVNSKGQVCSGRGTCVCGRCECTDPRSIGRFCEHCPTCYTACKENWNCMQCLHPHNLSQAILDQCKTSCALMEQQHYVDQTSECFSSPSYLRIFFIIFIVTFLIGLLKVLIIRQVILQWNSNKIKSSSDYRVSASKKDKLILQSVCTRAVTYRREKPEEIKMDISKLNAHETFRCNF [ITGB8]
HeLa Kyoto [1]
  solubility in G1/S (log2): -0.0596
HeLa Kyoto [2]; cell cycle stage: G1/S
  melting temperature: 53.9 °C
HeLa Kyoto [2]; cell cycle stage: mitosis
  melting temperature: 53.8 °C
HeLa Kyoto [3]
  solubility change mitosis (log2): -0.0048
HeLa Kyoto [4]; [5]
  thermal stability score: -0.935
HeLa Kyoto [4]; cell cycle stage: mitosis
  thermal stability score: -1.88

## MCGRTSCHLPRDVLTRACAYQDRRGQQRLPEWRDPDKYCPSYNKSPQSNSPVLLSRLHFEKDADSSERIIAPMRWGLVPSWFKESDPSKLQFNTTNCRSDTVMEKRSFKVPLGKGRRCVVLADGFYEWQRCQGTNQRQPYFIYFPQIKTEKSGSIGAADSPENWEKVWDNWRLLTMAGIFDCWEPPEGGDVLYSYTIITVDSCKGLSDIHHRMPAILDGEEAVSKWLDFGEVSTQEALKLIHPTENITFHAVSSVVNNSRNNTPECLAPVDLVVKKELRASGSSQRMLQWLATKSPKKEDSKTPQKEESDVPQWSSQFLQKSPLPTKRGTAGLLEQWLKREKEEEPVAKRPYSQ [HMCES]
HeLa Kyoto [1]
  solubility in G1/S (log2): 0.0685
HeLa Kyoto [2]; cell cycle stage: G1/S
  melting temperature: 48.6 °C
HeLa Kyoto [2]; cell cycle stage: mitosis
  melting temperature: 48.4 °C
HeLa Kyoto [3]
  solubility change mitosis (log2): -0.0383
HeLa Kyoto [4]; [5]
  thermal stability score: 1.11
HeLa Kyoto [4]; cell cycle stage: mitosis
  thermal stability score: 1.51

## KIAA1429
HeLa Kyoto [1]
  solubility in G1/S (log2): -0.435
HeLa Kyoto [2]; cell cycle stage: G1/S
  melting temperature: 47.9 °C
HeLa Kyoto [2]; cell cycle stage: mitosis
  melting temperature: 50.4 °C
HeLa Kyoto [3]
  solubility change mitosis (log2): 0.17
HeLa Kyoto [4]; [5]
  thermal stability score: 0.289
HeLa Kyoto [4]; cell cycle stage: mitosis
  thermal stability score: 0.336
